Experimental findings from publication PMC5784169, “Repression of Akt3 gene transcription by the tumor suppressor RIZ1” are described below.

One data set deals with T1, GST-RIZ1-Zf1-3 (UniProt Q13029 360-506).
T1 sequence: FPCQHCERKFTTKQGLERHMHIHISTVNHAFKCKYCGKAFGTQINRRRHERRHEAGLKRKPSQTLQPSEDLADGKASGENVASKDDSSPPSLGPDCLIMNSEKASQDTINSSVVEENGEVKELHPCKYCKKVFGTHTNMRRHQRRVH
The experiment in a line: EMSA; abolished by 30-fold excess unlabeled probe; LightShift Chemiluminescent EMSA kit, native PAGE; buffer, salt, pH and temperature not stated. The following applies: protein: recombinant; tags: N-terminal GST (pGEX-KG); label: 3' biotin; blunt. A general note: In EMSA bound probe runs differently from free probe, usually more slowly.

The next data set concerns the target T2, GST-RIZ1-Zf8 (UniProt Q13029 1455-1478).
T2 chain: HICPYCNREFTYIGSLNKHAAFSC
Described as above. Particulars: protein: recombinant; tags: N-terminal GST (pGEX-KG); label: 3' biotin; blunt.

B1: mouse Akt3 promoter CpG146 probe (dsDNA)
DNA 1: GGGGAGGGGCCGTCTGCGCATGTGGCGGGAGTGCGGGCGA
DNA 2: TCGCCCGCACTCCCGCCACATGCGCAGACGGCCCCTCCCC
As for B1, the binding result with GST-RIZ1-Zf1-3 and with GST-RIZ1-Zf8 was “binds” throughout.
